Experimental findings from ChEMBL document CHEMBL1155806, “Inorganic polyhedral metallacarborane inhibitors of HIV protease: a new approach to overcoming antiviral resistance” (J Med Chem, 2008) are described below.

The test system of data set [1] is Cc1c(O)cccc1C(=O)N[C@@H](CSc1ccccc1)[C@H](O)CN1C[C@H]2CCCC[C@H]2C[C@H]1C(=O)NC(C)(C)C. To be noted: Human immunodeficiency virus 1; BH10.
For data set [2] the test system is unchanged. The note with it: Human immunodeficiency virus 1.
Data set [3] has the same test system. To be noted: Human immunodeficiency virus 1. The source holds these as a separate data set.
Data set [4] shares this test system. To be noted: Human immunodeficiency virus 1. The source holds these as a separate data set.
The test system is the same in data set [5]. The note with it: Human immunodeficiency virus 1. This is another data set of the same source.
The test system is the same in data set [6]. To be noted: Human immunodeficiency virus 1. The source holds these as a separate data set.
The test system is the same in data set [7]. To be noted: Human immunodeficiency virus 1. The source holds these as a separate data set.
Data set [8] has the same test system. The note with it: Human immunodeficiency virus 1. This is another data set of the same source.

In the case of “Protease (Human immunodeficiency virus 1), Q9YQ12”, in data set [1], the Km worked out at 15 µM and the catalytic constant (kcat) came out at 30 s⁻¹.
As for “Human immunodeficiency virus type 1 protease (Human immunodeficiency virus 1), Q72874 V32I,I47A”, in data set [2], the Km came out at 35 µM and the kcat was found to be 7.5 s⁻¹.
Consider “Human immunodeficiency virus type 1 protease (Human immunodeficiency virus 1), Q72874 M46I,A71V,V82T,I84V”, for which, in data set [3], the Km was 48 µM and the kcat turned out to be 14 s⁻¹.
For the substance “Human immunodeficiency virus type 1 protease (Human immunodeficiency virus 1), Q72874 A71V,V82T,I84V”, in data set [4], the Km came to 36 µM and the kcat turned out to be 11 s⁻¹.
In the case of “Human immunodeficiency virus type 1 protease (Human immunodeficiency virus 1), Q72874 D30N,N88D”, in data set [5], the Michaelis constant (Km) stood at 18 µM and the kcat is 24 s⁻¹.
Consider “Human immunodeficiency virus type 1 protease (Human immunodeficiency virus 1), Q72874 L10F,L19I,K20R,L33F,E35D,M36I,R41K,F53L,I54V,L63P,H69K,A71V,T74P,I84V,L89M,L90M,I93L”, for which, in data set [6], the Michaelis constant (Km) amounted to 13 µM and the kcat was 10 s⁻¹.
“Human immunodeficiency virus type 1 protease (Human immunodeficiency virus 1), Q72874 L10I,I15V,E35D,N37S,R41K,I62V,L63P,A71V,G73S,L90M”: in data set [7], the Km was 8.3 µM and the kcat was found to be 12 s⁻¹.
With “Human immunodeficiency virus type 1 protease (Human immunodeficiency virus 1), Q72874 L10I,L24I,L33F,M46L,I54V,L63P,A71V,V82A,I84V”, in data set [8], the Km was determined as 14 µM and the turnover number (kcat) was found to be 6.4 s⁻¹.
